No end group written: not given here.

The target in data set [1] is PSA (Homo sapiens, UniProt P07288). Particulars: cited from earlier work; for Kcat / Km: aminomethyl coumarin labeled peptides, 50 mM Tris, 0.1 M NaCl, pH 7.8.
Data set [2] concerns E14 mouse T-cell lymphoma cells (ATCC TIB-39). In words: In vitro toxicity, MTS/PMS cell viability assay. The class given is cell-based. To be noted: 4 hours at 37° C., 1×10^−13 M-1×10^−7M toxin, FIG. 3; read-out: LC50 (the source's name). As for the experimental part:
To determine in vitro toxicity, a cell viability assay was performed as follows. E14 mouse T-cell lymphoma cells (ATCC TIB-39) were cultured at 10^+5 cells per well in MTS/PMS Cell Titer 96 (Promega). […] Cell viability was subsequently determined by reading the plate on a plate reader, as directed by the manufacturer of the MTS/PMS kit.

Data set [3] has as its system human LNCaP prostate cancer xenografts which produce PSA. Description: Intratumoral injection into PSA-producing LNCaP xenografts. It counts as in vivo. Particulars: nude mice. The method, then: The percent of tumor within sample was determined by calculating the ratio of viable tumor to total tumor area following image analysis of thin tumor sections.
In data set [4] the test system is mice. Description: In vivo toxicity after single intravenous injection. The method, then: To determine in vivo toxicity, proaerolysin variants were administered to mice intravenously.

Sequence of PSA (P07288 25-261): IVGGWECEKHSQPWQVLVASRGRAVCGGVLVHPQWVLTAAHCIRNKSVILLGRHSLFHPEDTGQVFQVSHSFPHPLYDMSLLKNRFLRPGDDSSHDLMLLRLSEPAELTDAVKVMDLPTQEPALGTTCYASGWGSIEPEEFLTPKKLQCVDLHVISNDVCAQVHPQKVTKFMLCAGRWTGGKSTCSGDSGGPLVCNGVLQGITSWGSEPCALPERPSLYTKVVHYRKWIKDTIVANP

As to “ATKSKQH (also: fluorescently labeled (aminomethyl coumarin); listed as Homo sapiens) [ATKSKQH (17), PSA substrate peptide]”, in data set [1], the Kcat is 0.0091 s⁻¹; the Km (commonly the substrate concentration at which the rate is half of its maximum) was 1310 µM; the “efficiency and specificity of hydrolysis by PSA” value (shortened to “efficiency and specificity”) is listed as “not efficient, but were specifically hydrolyzed by PSA”.
Consider “EHSSKLQ (also: fluorescently labeled (aminomethyl coumarin); listed as Homo sapiens) [EHSSKLQ (20), PSA substrate peptide]”, for which, in data set [1], the Kcat is 0.012 s⁻¹ and the Km was 1160 µM.
On to “HSSKLQ (listed as Homo Sapiens) [HSSKLQ (5), PSA substrate peptide]”, for which, in data set [1], the Kcat is 0.011 s⁻¹ and the Km was 470 µM.
As to “KGISSQY (also: fluorescently labeled (aminomethyl coumarin); listed as Homo sapiens) [KGISSQY (15), PSA substrate peptide]”, in data set [1], the Kcat was 0.043 s⁻¹; the Km is 160 µM; the “efficiency and specificity” value is listed as “efficiently but not specifically hydrolyzed by PSA”.
For the substance “KGLSSQC (also: fluorescently labeled (aminomethyl coumarin); listed as Homo sapiens) [KGLSSQC (18), PSA substrate peptide]”, in data set [1], the Kcat is 0.0017 s⁻¹ and the Km is 300 µM.
On to “LGGSSQL (also: fluorescently labeled (aminomethyl coumarin); listed as Homo sapiens) [LGGSSQL (19), PSA substrate peptide]”, for which, in data set [1], the Kcat is 0.0037 s⁻¹; the Michaelis-Menten constant (Km) is 900 µM; the “efficiency and specificity” value is on record as “not efficient, but were specifically hydrolyzed by PSA”.
Consider “SKLQ (also: fluorescently labeled (aminomethyl coumarin); listed as Homo sapiens) [SKLQ (21), PSA substrate peptide]”, for which, in data set [1], the Kcat was 0.020 s⁻¹ and the Km was 813 µM.
On to “SRKSQQY (also: fluorescently labeled (aminomethyl coumarin); listed as Homo sapiens) [SRKSQQY (16), PSA substrate peptide]”, for which, in data set [1], the Kcat was 0.023 s⁻¹; the Km is 90 µM; the “efficiency and specificity” value was “efficiently but not specifically hydrolyzed by PSA”.
As to Wild-type proaerolysin, the CC50 in data set [2] worked out at 0.15 nM. In data set [3], the “antitumor effect against LNCaP xenografts” value is “minimal effect”. Moreover, the “lethality after dose of 1 μg” value in data set [4] (intravenous, 1 μg) is reported as “caused death within one hour”. The “LD100 at 24 hours (dose that kills 100% of animals within 24 hours)” value in data set [4] (single IV injection, total dose) was determined as 0.1 µg.

The values are drawn from patent publication US7838266B2, “Proaerolysin containing protease activation sequences and methods of use for treatment of prostate cancer” (University of Victoria Innovation and Development …, priority 2001, dated 2010).
